Reference: the supplement of paper PMC11865577

Experiments:
Test in all cases: pull-down binding Z-score (relative to library population); higher = stronger binding
Conditions in all cases: RNA library: Library-2
[1] = tested on: TO-N3 (biotin conjugate)
Summary of the method: (§1)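 Heat-folded RNA library (1 μg, Cy5 or Cy3 end label, phosphate/NaCl/KCl buffer) was captured for 60 min at 25 °C on streptavidin beads displaying 100 pmol of biotin-conjugated small molecule, then washed three times. The bound fraction, eluted in hot SDS, was hybridised to a DNA barcode microarray at 55.5 °C for 20 h. Z-scores for binding were taken against the library mean and standard deviation after beads-only subtraction and trimmed averaging of replicate barcoded probes.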

[2] = tested on: TO-N3-2 (biotin conjugate)
Summary of the method: as §1

[3] = tested on: TO-3-N3 (biotin conjugate)
Summary of the method: as §1

[4] = tested on: TO-3-N3-2 (biotin conjugate)
Summary of the method: as §1

| Sequence | pull-down binding Z-score [1] | pull-down binding Z-score [2] | pull-down binding Z-score [3] | pull-down binding Z-score [4] |
| --- | --- | --- | --- | --- |
| GUGCGUAUAAAGAUUGUACAAAUGUUAAGUGACACACUUAAAAAUCUCUCUGACAGAGUCGUAUUUGUCUUAUGGGCAC [DMSMaPseq_invitro_SARS-CoV-2_Multi_54_ComplexLevel_1] | -0.833 | -0.644 | -1.04 | -0.29 |
| UGAAUUAGACUCAUUCA [DMSMaPseq_invitro_SARS-CoV-2_Motif_447] | -0.643 | -0.825 | -0.55 | -0.45 |
| CCUUGUAGGUUUGUUACAGACACACCUAAAGG | -0.262 | -0.614 | -0.369 | -0.655 |
| CAGGUUUGUGAGAUACUUACCUG [U1snRNP5ss-14] | -0.661 | -0.792 | -0.473 | -0.404 |
| CUGGGCCAUAAGGACCAG [IAV_invivo_NP_5_Motif_20+IAV_invivo_NP_5_Motif_20] | -0.418 | -0.786 | -0.0792 | -0.477 |
| UCUAUACAGAACUGGA [SHAPE_invivo_SARS-CoV-2_Motif_242] | 0.79 | -0.496 | 1.18 | -0.0262 |
| GCUGUUGGUACCAAUUUACCUUUACAGC [SHAPE_invitro_SARS-CoV-2_Motif_335] | 0.215 | -0.561 | 0.416 | -0.037 |
| AACCAGUUAACUGGUU [SHAPE_invivo_SARS-CoV-2_Motif_126] | 0.00533 | -1.24 | 0.328 | -0.406 |
| AAGAAGGUCAAAUCAAUGAUAUGAUUUUAUCUCUUCUU | -0.543 | -1.06 | -0.253 | 0.176 |
| GGAGAUGAGGCGUUGCCUCCUCC [IAV_invivo_PA_3_Motif_24+IAV_invivo_PA_3_Motif_24] | -1.01 | -0.275 | -0.646 | -0.663 |
| UUACACCACUGGGCAUUGAUUUAGAUGAGUGGAGUAUGGCUACAUACUACUUAUUUGAUGAGUCUGGUGAGUUUAA | -1.09 | -1.04 | -0.972 | -0.516 |
| GUGCCAUCAAAUUGGAUGACAAAGAUCCAAAUUUCAAAGAUCAAGUCAUUUUGCUGAAUAAGCAUAUUGACGCAU | -0.411 | -0.159 | -0.675 | -0.165 |
| AUGAAUCUCUCAU [SHAPE_invivo_SARS-CoV-2_Motif_473] | -0.427 | -0.958 | -0.104 | -0.347 |
| GUUACGACUAUUGUAUACCUUACAAUAGUGUAAC | 0.531 | 0.142 | 0.593 | 0.229 |
| AUCUUCUGCAGGCUGCUUACGGUUUCGUCCGUGUUGCAGCCGAUCAUCAGCACAUCUAGGUUUUGUCCGGGUGUGACCGAAAGGUAAGAU [DMSMaPseq_invitro_SARS-CoV-2_Multi_2_ComplexLevel_1] | -1.06 | -0.919 | -0.599 | -0.451 |
| CUCCAAAAAGAG | -1.21 | -1.2 | -0.901 | -0.675 |
| CCUGACUUAAAUGGUGAUGUGGUGGCUAUUGAUUAUAAACACUACACACCCUCUUUUAAGAAAGG | -0.206 | -0.275 | -0.161 | 0.00798 |
| CAAAUGUGCCUUUCAACUCUCAUGAAGUGUGAUCAUUGUGGUGAAACUUCAUGGCAGACGGGCGAUUUUG | -0.576 | 0.555 | -0.685 | -0.412 |
| UCUAUUAAAAUAUAAUGA [DMSMaPseq_invitro_SARS-CoV-2_Motif_395] | -0.185 | -0.693 | -0.0176 | -0.157 |
| ACAUACUAGGACCUCUUUCUGCUCAAACUGGAAUUGCCGUUUUAGAUAUGU [DMSMaPseq_invitro_SARS-CoV-2_Motif_193] | -0.989 | -0.421 | -0.933 | -0.407 |
| GUACCUCAAGCUGAUGUAGAAUGGAAGUUCUAUGAUGCACAGCCUUGUAGUGAC [SHAPE_invitro_SARS-CoV-2_Motif_348] | -0.178 | 0.735 | -0.418 | -0.203 |
| CAAGGGUACACACCACUG | 0.81 | 0.0749 | 0.824 | -0.131 |

| Sequence | pull-down binding Z-score [1] | pull-down binding Z-score [2] | pull-down binding Z-score [3] | pull-down binding Z-score [4] |
| --- | --- | --- | --- | --- |
| CAGGCAAGAAGGAUACUUACCUG [U1snRNP5ss-25] | -0.353 | -0.695 | -0.164 | -0.366 |
| CUAUUCAAACAAUUGUUGAGGUUCAACCUCAAUUAGAGAUGGAACUUACACCAGUUGUUCAGACUAUUGAAGUGAAUAGUUUUAG [SHAPE_invivo_SARS-CoV-2_Multi_36_ComplexLevel_1] | -0.421 | -0.461 | -0.49 | -0.292 |
| GGUCAGAAUGAUC [IAV_invivo_NP_5_Motif_12+IAV_invivo_NP_5_Motif_12] | -0.601 | -0.437 | -0.394 | -0.0405 |
| GUGCCUGGAAUAUUGGUGAACAGAAAUCAAUACUGAGUCCUCUUUAUGCAUUUGCAUCAGAGGCUGCUCGUGUUGUACGAUCAAUUUUCUCCCGCAC [SHAPE_invivo_SARS-CoV-2_Motif_37] | -0.115 | 0.225 | -0.254 | -0.0608 |
| AACAUUUACUUAUGCAUCAGCAUUGUGGGAAAUCCAACAGGUUGUAGAUGCAGAUAGUAAAAUUGUU [DMSMaPseq_invitro_SARS-CoV-2_Motif_222] | -0.126 | -0.134 | 0.159 | -0.0746 |
| GUGCGGCACAGGCACUAGUACUGAUGUCGUAU [SHAPE_invitro_SARS-CoV-2_Motif_246] | 0.568 | 0.326 | 0.297 | 0.0228 |
| GGCGUUGUCCUGCUGAAAUUGUUGACACUGUGAGUGCUUUGGUUUAUGAUAAUAAGCUUAAAGCACAUAAAGACAAAUCAGCUCAAUGCU | -0.324 | 0.182 | -0.58 | -0.302 |
| GUAAAUUUACUUAC [DMSMaPseq_invitro_SARS-CoV-2_Motif_170] | 0.563 | -0.635 | 0.655 | -0.105 |
| UGGGAUUAUCCUA [DMSMaPseq_invitro_SARS-CoV-2_Motif_276] | -0.106 | -0.609 | 0.251 | -0.249 |
| UCACUCACUGAGUGA [IAV_invivo_NP_5_Motif_1+IAV_invivo_NP_5_Motif_1] | -0.616 | -1.45 | -0.0667 | -0.357 |
| CAGACAACACAUUUGUGUCUG | -1.45 | -1.8 | -1.07 | -0.67 |
| GGUGUUUUAACUGCUGUGGUUAUACCUACUAAAAAGGCUGGUGGCACUACUGAAAUGCU | -0.521 | -0.153 | -0.83 | -0.12 |
| GUUAACUGGUUAUAAGAAACCUGCUUCAAGAGAGCUUAAAGUUAC | -0.0514 | -0.112 | 0.0276 | 0.092 |
| CGGUUGCUUGGUCAGCAAGUGCAUGUCAUGAUGGCAUGGGCUGGCUAACAAUCG [IAV_invivo_NA_6_Motif_7+IAV_invivo_NA_6_Motif_7] | -0.939 | -0.222 | -0.929 | -0.69 |
| ACUAAAAAUGU [SHAPE_invitro_SARS-CoV-2_Motif_381] | -0.167 | -0.642 | 0.184 | -0.343 |
| GGCAACUAGCACUCUCCAAGGGUGUUCACUUUGUUUGCAACUUGCUGUUGUUGUUUGUAACAGUUUACUCACACCUUUUGCUCGUUGCU [SHAPE_invitro_SARS-CoV-2_Motif_465] | -0.358 | -0.0997 | -0.318 | -0.205 |
| CUACACUAGUGCCACAAGAGCACUAUGUUAG | -0.127 | 0.417 | -0.402 | -0.213 |
| UAUUUCAUAACAGAUGCGCAAACAGGUUCAUCUAAGUGUGUGUGUUCUGUUAUUGAUUUA | -1.16 | -0.209 | -1.06 | -0.188 |
| UCAUAACAGAUGCGCAAACAGGUUCAUCUAAGUGUGUGUGUUCUGUUAUUGA [SHAPE_invivo_SARS-CoV-2_Motif_383] | -0.196 | 1.78 | -0.657 | -0.455 |
| GAGACGGUCGGGUCCAGAUAUUCGUAUCUGUCGAGUAGAGUGUGGGCUCC [Broccoli] | 1.12 | 1.99 | 0.184 | 0.495 |
| CCACAUUUUCACCGAGGCCACGCGGAGUACGAUCGAGUGUACAGUGAACAAUGCUAGG | 0.772 | 1.34 | -0.147 | 0.563 |
| GUGGUAGUUAUACUAAUGACAAAGCUUGCCCAUUGAUUGCUGC [DMSMaPseq_invitro_SARS-CoV-2_Motif_161] | 0.498 | 0.208 | 0.409 | 0.207 |

| Sequence | pull-down binding Z-score [1] | pull-down binding Z-score [2] | pull-down binding Z-score [3] | pull-down binding Z-score [4] |
| --- | --- | --- | --- | --- |
| GGCAGUUUGUAUGUAAAUAAACAUGCAUUCC [SHAPE_invivo_SARS-CoV-2_Motif_362] | -0.216 | -0.727 | 0.0152 | -0.171 |
| AAAUUGCCGAUAAGUAUGUCCGCAAUUU | -0.683 | -1.13 | -0.317 | -0.436 |
| GACCCUGUGGGUU [SHAPE_invitro_SARS-CoV-2_Motif_242] | 0.574 | -0.805 | 0.817 | -0.329 |
| GUGAAUUCAACAU [DMSMaPseq_invitro_SARS-CoV-2_Motif_308] | -0.428 | -0.524 | -0.238 | -0.213 |
| UCUUCAGGUUGGACAGCUGGUGCUGCAGCUUAUUAUGUGGGUUAUCUUCAACCUAGGA [DMSMaPseq_invitro_SARS-CoV-2_Multi_66_ComplexLevel_1] | 0.0485 | 0.0317 | -0.145 | -0.178 |
| GUCUAAUCUCAAACCUUUUGAGAGAGAU | -1.19 | -1.07 | -0.801 | -0.695 |
| GACGACUACUAGCGUGCCUUUGUAAGCACAAGCUGAUGAGUACGAACUUAUGUACUCAUUCGUU [SHAPE_invivo_SARS-CoV-2_Multi_65_ComplexLevel_1] | 0.417 | 0.764 | 0.114 | 0.0759 |
| AUCUGAAUUCUUCUAGAGUUCCUGAU | 0.466 | -0.858 | 0.655 | -0.168 |
| GGACUUGAAAGAGCC | -0.45 | -0.676 | -0.384 | -0.442 |
| GUCUUACACCGUGCGGCACAGGCACUAGUACUGAUGUCGUAUACAGGGCUUUUGAC [DMSMaPseq_invitro_SARS-CoV-2_Motif_242] | 0.173 | 0.217 | -0.0912 | 0.0142 |
| AUUGUUCAACUUAGUGAAAUUAGUAUGGACAAU | 0.606 | -0.828 | 0.851 | 0.243 |
| CUGUUGGUACCAAUUUACCUUUACAGCUAGGUUUUUCUACAGGUGUUAACCUAGUUGCUGUACCUACAG | -1.16 | -1.02 | -0.959 | -0.514 |
| CACUGUACAGUCUAAAAUGUCAGAUGUAAAGUG [DMSMaPseq_invitro_SARS-CoV-2_Motif_208] | -0.414 | -0.645 | -0.25 | -0.0983 |
| GCACUAUUGCCUUUGGAGGCUGUGUGU [SHAPE_invivo_SARS-CoV-2_Motif_29] | 0.415 | -0.0377 | 0.554 | -0.236 |
| CGGGGCGGGAGGGGAAGGGACGCCCG [hsa-mir-6850] | 6.39 | 5.1 | 6.93 | 7.75 |
| GCUCUCUGAUGC [IAV_invivo_NP_5_Motif_10+IAV_invivo_NP_5_Motif_10] | -0.672 | -0.464 | -0.607 | -0.589 |
| AGUACACCUUUGAAAAAGGUGACU | -1.22 | -1.09 | -0.883 | -0.572 |
| UGUUACUUUAUAUUGACAUUAAUGGCAAUCUUCAUCCAGAUUCUGCCACUCUUGUUAGUGACA | -0.585 | -0.868 | -0.354 | -0.104 |
| GCUGAGGCUUCUAAGAAGCCUCGGC | -1.05 | -1.43 | -0.572 | -0.475 |
| GACCCUAAGACUAAAAAUGUUACAAAAGAAAAUGACUCUAAAGAGGGUUUUUUCACUUACAUUUGUGGGUU | -0.227 | -0.519 | -0.131 | 0.101 |
| AUCACUAGGUUUCAAACUUUACUUGCUUUACAUAGAAGUUAUUUGACUCCUGGUGAU | -0.884 | -1.03 | -0.735 | -0.375 |
